The results in this text go back to patent US20170226204A1 (PERONGEN BIOTHERAPEUTICS SUZHOU, published 2017).

The labels stand for the following.
T1: human CD7 molecule (human, UniProt P09564 26-240)
T1 construct: whole, on cells; also called CD7 protein
T1 sequence (looked up): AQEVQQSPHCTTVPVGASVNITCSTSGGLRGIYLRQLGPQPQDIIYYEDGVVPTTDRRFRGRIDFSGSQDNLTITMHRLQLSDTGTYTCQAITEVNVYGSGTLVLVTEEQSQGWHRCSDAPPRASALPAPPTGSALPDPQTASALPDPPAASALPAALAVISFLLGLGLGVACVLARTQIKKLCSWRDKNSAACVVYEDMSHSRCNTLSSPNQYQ

B1: anti-human CD7 nanobody clone 1 (VHH)
VHH: DVQLQESGGGSVQAGGSLRLSCPASGYTFSHYCMGWNRQAPGKEREEVATIDTDDTPTYADSVMGRFTISRDNANNALYLQMNDLKPEDTSMYYCAIWMKLRGSCHDRRLEVRGQGTQVTVSI
B2: anti-human CD7 nanobody clone 3 (VHH)
VHH: B1 VHH with N37L, D55S, I97T, K100G
B3: anti-human CD7 nanobody clone 6 (VHH)
VHH: DVQLQESGGGSVQAGGSLRLSCAASGYTYSTYCMGWFRQAPGKEREGVATIDSDGSTSYADSVKGRFTISRDNAKNTLNLQMSSLKPEDTAMYYCAARFGPMGCVDLSTLSFGHWGQGTQVTVSI
B4: anti-human CD7 nanobody clone 4 (VHH)
VHH: DVQLQESGGGSVQAGGSLRLSCAASGYTTSRLCMAWFRQFPGKEREGVANVRLGGYKPAYADSVKGRFTLSEDSAKNTVYLEMNSLQPEDTAMYYCAADPGGGGSCPVALVRGDFDYWGQGTQVTVSI

Numbering of substitutions follows the chain as printed.

In the test the target is T1, human CD7 molecule. In words: phage whole-cell ELISA, 293T-CD7+ against 293T-CD7- cells; positive when OD is 2.5 times that of the control well.
As for B1, the binding result is “binds”.
As to B2, the binding result is “binds”.
Turning to B3, the binding result is recorded as “binds”.
Consider B4, for which the binding result was “binds”.
